The target of data set [1] is T1, CXCR4 (Homo sapiens, UniProt P61073). Kind of data set: competitive binding with [^125I]CXCL12 as radioligand on CXCR4-expressing CCRF-CEM cells. Further details: using CXCR4-expressing CCRF-CEM cells, human T lymphoblastic leukemia cells CXCR4 expressing; endogenous in cells; host or cells: CCRF-CEM (human T-cell leukemia), whole cells. Conditions: [^125I]CXCL12 radioligand, means ±SD, read-out: hCXCR4 binding affinity IC50. Here is the method:
Specifically, according to the present invention, DOTA and NOTA-AMBHA-R54 were synthesized by combining solid and solution-phase peptide synthesis. Binding affinities (IC50) were determined using CXCR4-expressing CCRF-CEM cells, human T lymphoblastic leukemia cells CXCR4 expressing, with [^125I]CXCL12 as radioligand. Chinese hamster ovary (CHO) and CHO cells transduced with human CXCR4 (CHO-hCXCR4) grown in complete medium supplemented with 1 mg/mL G418 (a kind gift of Dr. David McDermott (NIAID, NIH, Bethesda, Md.).
Binding affinities to hCXCR4 were assessed with CCRF-CEM cells (1·10^6 cells/sample) in binding buffer (PBS containing 50 mM HEPES, 1 mM CaCl2, 5 mM MgCl2, 0.5% BSA, and 0.3 mM NaN3) and [^125I]CXCL12 (Perkin-Elmer, 2200 Ci/mmol) as radioligand. Cells were incubated with 100.000 cpm of the respective radioligand (approx. 0.1 nM) plus increasing concentrations (10^−11 to 10^−5 M) of the respective peptide of interest (n=3 per concentration, total sample volume 250 μL). After incubation at 4° C. for 60 min (CCRF-CEM cells) at room temperature (RT), samples were centrifuged (5 min, 450 g, Megafuge 1.0, Heraeus Thermo Scientific), the supernatant was carefully removed and pooled with the supernatants of two subsequently performed washing steps. […]

For data set [2], the target named is T1, CXCR4. Particulars: competitive binding assay using anti-CXCR4 mAb 12G5; read-out: CXCR4 affinity IC50; cited from earlier work.
Another data set deals with CHO-hCXCR4 tumor. On the set-up: species or system mice. Conditions: mouse, in vivo. On the procedure:
Female athymic nude mice (6 weeks old from Envigo Laboratories, Indianapolis, Ind., USA) were subcutaneously (s.c.) injected with 10^7 CHO (right flank) and CHO-hCXCR4 (left flank) or CHO-hCXCR4 cells alone (right flank). Once tumors became palpable (100=^3 [volume=0.5×long diameter×(short diameter)^2]), approximately 15-21 days post injection (p.i.), the animals were used for the experiments. 10-15 MBq of the respective ^68Ga-labeled peptide in 100 μL of PBS were injected into the tail vein of nude mice bearing CHO-hCXCR4 tumor (groups of n=3-5). For competition studies, 8 mg/kg of unlabeled […], were co-injected with the radioligands. At 45 min p.i., blood was collected from the retro-orbital plexus (100 μl) and mice were sacrificed and the tissues and organs of interest were dissected, weighed, and counted for radioactivity in a γ-counter. Biodistribution data are given as percent injected dose per gram tissue, % ID/g (means±SD). The biodistribution of [^68Ga]DOTA-AMBHA-R54 and [^68Ga]NOTA-AMBHA-R54 was investigated in CHO-hCXCR4 bearing […] mice (45 min p.i.). […] Data are given in % ID/g and are means±SD.

The next data set is described as follows: in vivo. Particulars: female, athymic nude, mouse, iv, total radioactivity. Further details: species or system mice. From the text:
(§1) Female athymic nude mice (6 weeks old from Envigo Laboratories, Indianapolis, Ind., USA) were subcutaneously (s.c.) injected with 10^7 CHO (right flank) and CHO-hCXCR4 (left flank) or CHO-hCXCR4 cells alone (right flank). Once tumors became palpable (100=^3 [volume=0.5×long diameter×(short diameter)^2]), approximately 15-21 days post injection (p.i.), the animals were used for the experiments. Tumor-bearing CHO/CHO-hCXCR4 mice were i.v. injected with 10-15 MBq of the respective radiotracer in 100 μL of PBS. At 45 min p.i., mice were anaesthetized with Avertin and images were acquired using a Discovery 600 PET/TC scanner (GE healthcare) in 3D mode with measured attenuation correction (1 bed position, 6 min scanning time). Data were decay-corrected to the time of tracer injection. The reconstructed images including PET, CT and fused PET/TC images, were generated on the advantage workstation version (AW4.6 software, GE healthcare). Tissue activity (e.g. tumor, lung, liver, kidney) was quantified considering the volume of a region of interest (ROI) to determine maximum standardized uptake values (SUVmax). Non-specific tracer accumulation was investigated by co-injection of 8 mg/kg unlabeled peptide […]. CHO and CHO-hCXCR4 tumors were microscopically analyzed (H&E) and CXCR4 expression was evaluated through immunohistochemistry (IHC) (mab172, clone 44716, diluition 1:[…]&D system). The percentage of positive cells was evaluated in at least 5 areas (HPF 200× magnification) (Zeiss AxioScope light microscope). Statistical analysis was performed using the MedCalc 9.3.7.0 and Excel software. Unpaired Student t test was used for statistical analysis of ex vivo biodistribution and PET/TC images. The Spearman's correlation was used to measure the degree of association between SUV(max) and % CXCR4 IHC staining.

Another data set has as its system CHO-hCXCR4 xenografts. Kind of data set: in vivo. Further details: species or system mice. Particulars: mouse; for tumor accumulation upon co-injection of unlabeled competitor (R54): 8 mg/kg.
Text: as §1

The target of data set [3] is T2, human CXCR4 (chemokine receptor 4) on CCRF-CEM cells (human, UniProt P61073 1-352).
T2 construct: whole, on cells; also called hCXCR4
T2 sequence (P61073 whole entry): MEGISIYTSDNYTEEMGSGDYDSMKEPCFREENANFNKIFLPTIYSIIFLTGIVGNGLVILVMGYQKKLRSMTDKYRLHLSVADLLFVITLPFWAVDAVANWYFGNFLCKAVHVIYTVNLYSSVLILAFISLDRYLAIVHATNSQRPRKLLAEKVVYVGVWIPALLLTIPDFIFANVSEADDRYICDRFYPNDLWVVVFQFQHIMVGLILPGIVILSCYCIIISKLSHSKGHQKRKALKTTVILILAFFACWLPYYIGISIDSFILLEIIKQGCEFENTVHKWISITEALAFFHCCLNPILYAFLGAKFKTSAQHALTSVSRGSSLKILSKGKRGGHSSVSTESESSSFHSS
Kind of data set: displacement of [125I]CXCL12 from CXCR4-expressing CCRF-CEM cells, gamma counting. On the procedure:
Cells were incubated with 100.000 cpm of the respective radioligand (approx. 0.1 nM) plus increasing concentrations (10⁻¹¹ to 10⁻⁵ M) of the respective peptide of interest (n=3 per concentration, total sample volume 250 μL). After incubation at 4° C. for 60 min (CCRF-CEM cells) at room temperature (RT), samples were centrifuged (5 min, 450 g, Megafuge 1.0, Heraeus Thermo Scientific), the supernatant was carefully removed and pooled with the supernatants of two subsequently performed washing steps. Then, the amount of free (pooled supernatants) and bound radioligand (cell pellet) was quantified using a γ-counter and expressed in percent of total added activity. The half maximal inhibitory concentration (IC₅₀) values were calculated using GraphPad Prism software (GraphPad Software, Inc., California).
To assess the influence of modifications and chelator conjugation on R54, the CXCR4 affinity of Fmoc-AMBHA-R54 (see above the structure), NOTA-AMBHA-R54 and DOTA-AMBHA-R54 peptides as well as unmodified R54 were tested in competitive binding with [¹²⁵I]CXCL12 as radioligand on CXCR4-expressing CCRF-CEM cells. Each experiment was performed in triplicate, and results are means ±SD from a minimum of three separate experiments.

This is an account of results in patent US20230099200A1, “RADIOLABELED PEPTIDES FOR NON-INVASIVE DIAGNOSIS AND TREATMENT OF CXCR4 EXPRESSING TUMORS” (ISTITUTO NAZIONALE TUMORI IRCCS - FONDAZIONE G. PASCALE, priority 2019, published 2023).

Where two headings read alike, the source gives them in different places. Where a SMILES comes first, the peptide text is derived from it. Bridges are numbered along the chain shown (N, C = ends). [ ]: non-standard residue; d: D form. The star is where a group is joined. AMBHA = 6-(4-(aminomethyl)benzamido)hexanoic acid linker, NCc1ccc(C(=O)NCCCCCC(=O)*)cc1; DOTA = O=C(O)CN1CCN(CC(=O)O)CCN(CC(=O)*)CCN(CC(=O)O)CC1; NOTA = O=C(O)CN1CCN(CC(=O)O)CCN(CC(=O)*)CC1; 2Nal = N[C@@H](Cc1ccc2ccccc2c1)C(=O)O; Fmoc = O=C(OCC1c2ccccc2-c2ccccc21)*; Pen = CC(C)(S)[C@H](N)C(=O)O; 4Amb = NCc1ccc(C(=O)O)cc1; Ahx = NCCCCCC(=O)O

T1 sequence (P61073 whole entry): as above

Consider `CC(=O)N[C@@H](CCCNC(=N)N)C(=O)N[C@@H](C)C(=O)N[C@@H]1CSSC(C)(C)[C@@H](C(=O)O)NC(=O)[C@H](Cc2c[nH]cn2)NC(=O)[C@H](Cc2ccc3ccccc3c2)NC(=O)[C@H](CCCNC(=N)N)NC1=O` [Peptide R54, Ac-Arg-Ala-[DCys-Arg-Nal(2′)-His-Pen]COOH] (Ac-RA[dC]R[2Nal]H[Pen]-OH; disulfide 3-7), for which the IC50 (as a rule, the point on the concentration scale where inhibition reaches its midpoint) at CXCR4 [1] is 20 ± 2 nM.

`CC(=O)N[C@@H](CCCNC(=N)N)C(=O)N[C@@H](C)C(=O)N[C@@H]1CSSC(C)(C)[C@@H](C(=O)O)NC(=O)[C@H](Cc2cnc[nH]2)NC(=O)[C@H](Cc2ccc3ccccc3c2)NC(=O)[C@H](CCCNC(=N)N)NC1=O` [Peptide R54, Ac-Arg-Ala-[DCys-Arg-Nal(2′)-His-Pen]COOH] (Ac-RA[dC]R[2Nal]H[Pen]-OH; disulfide 3-7): the IC50 on CXCR4 [2] is 1.5 ± 0.5 nM.

With `C[C@H](NC(=O)[C@H](CCCNC(=N)N)NC(=O)CCCCCNC(=O)c1ccc(CNC(=O)CN2CCN(CC(=O)O)CCN(CC(=O)O)CCN(CC(=O)O)CC2)cc1)C(=O)N[C@@H]1CSSC(C)(C)[C@@H](C(=O)O)NC(=O)[C@H](Cc2c[nH]cn2)NC(=O)[C@H](Cc2ccc3ccccc3c2)NC(=O)[C@H](CCCNC(=N)N)NC1=O` [[^68Ga]DOTA-AMBHA-R54, metal not drawn] ({DOTA-4Amb-Ahx}-RA[dC]R[2Nal]H[Pen]-OH; disulfide 3-7), the tumor/non-tumor ratios result in the data set with CHO-hCXCR4 tumor is listed as “high tumor/non-tumor ratios”. Besides, the SUV at 0.75 h in “in vivo” was determined as 2.02 ± 0.14 SUV. For the same molecule, in the data set with CHO-hCXCR4 xenografts, the “maximum standardized uptake value (SUVmax)” value was found to be 2.02 ± 0.14 g/mL and the “tumor accumulation upon co-injection of unlabeled competitor (R54)” value was “reduced to background levels”.

`C[C@H](NC(=O)[C@H](CCCNC(=N)N)NC(=O)CCCCCNC(=O)c1ccc(CNC(=O)CN2CCN(CC(=O)O)CCN(CC(=O)O)CC2)cc1)C(=O)N[C@@H]1CSSC(C)(C)[C@@H](C(=O)O)NC(=O)[C@H](Cc2c[nH]cn2)NC(=O)[C@H](Cc2ccc3ccccc3c2)NC(=O)[C@H](CCCNC(=N)N)NC1=O` [[^68Ga]NOTA-AMBHA-R54, metal not drawn] ({NOTA-4Amb-Ahx}-RA[dC]R[2Nal]H[Pen]-OH; disulfide 3-7): in the data set with CHO-hCXCR4 tumor, the excretion route entry is “exclusive renal excretion” and the tumor/non-tumor ratios entry is listed as “high tumor/non-tumor ratios”. The SUV at 0.75 h in “in vivo” was 19.6 ± 2 SUV. In addition, in the data set with CHO-hCXCR4 xenografts, the “maximum standardized uptake value (SUVmax)” value came to 19.6 ± 2.00 g/mL and the “tumor accumulation upon co-injection of unlabeled competitor (R54)” value is given as “reduced to background levels”.

As for {DOTA-AMBHA}-RA[dC]R[2Nal]H[Pen]-OH (disulfide 3-7, also called DOTA-Ahx-R54; DOTA-R54) [DOTA-AMBHA-R54], the 50% inhibitory concentration (IC50) in data set [3] worked out at 107 nM.

{Fmoc-AMBHA}-RA[dC]R[2Nal]H[Pen]-OH (disulfide 3-7) [Fmoc-AMBHA-R54] registered an IC50 in data set [3] of 38.5 nM.

Molecule {NOTA-AMBHA}-RA[dC]R[2Nal]H[Pen]-OH (disulfide 3-7, also called NOTA-Ahx-R54; NOTA-R54) [NOTA-AMBHA-R54] came in with an IC50 in data set [3] of 36 nM.
